{
  "source": "paper PMC12404759",
  "about": "“Efficacy and safety of a therapeutic humanized FSH-blocking antibody in obesity and Alzheimer’s disease models” (The Journal of Clinical Investigation, 2025)",
  "key": {"[1]": {"molecular_target": "T1, follicle-stimulating hormone (FSH) (Homo sapiens (Human)., UniProt P01215;P01225)", "T1 sequence (P01215 25-116, chain 1 of 2)": "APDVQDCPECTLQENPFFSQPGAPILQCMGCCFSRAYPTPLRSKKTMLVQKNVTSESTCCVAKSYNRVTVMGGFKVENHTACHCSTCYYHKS", "T1 sequence (P01225 19-129, chain 2 of 2)": "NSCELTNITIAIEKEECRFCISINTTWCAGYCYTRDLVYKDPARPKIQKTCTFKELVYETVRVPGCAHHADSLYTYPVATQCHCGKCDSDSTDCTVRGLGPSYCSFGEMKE", "assay": "cell-based or functional assay"}, "[2]": {"molecular_target": "T1, follicle-stimulating hormone (FSH)", "assay": "protein thermal shift assay; antibody incubated with FSH; right-shift in melting temperature (Tm) of the ligand-binding Fab domain", "conditions": "both partners purified"}},
  "data": [
    {"binder": "MS-Hu6 (antibody, V domains shown, humanized VH and CH1; heavy chain of the Fab fragment (Hu6-Fab) deposited as PDB 8VZW; hinge and Fc of the full-length IgG; humanized VL and CL; light chain of the Fab fragment (Hu6-Fab) deposited as PDB 8VZW; the chimeric precursor used human IgK-CL; Full-length humanized IgG derived from the murine antibody Hf2 with the CDRs unaltered; The crystal was of the Fab fragment only) VH: QVQLQESGPGLVKPSQTLSLTCTVSGFSITSDYAWNWIRQPPGKGLEWIGSIFSSGSINYNPSLKSRVTISRDTSKNQFSLKLSSVTAADTAVYYCARGGTGTDYWGQGTLVTVSS VL: DIQMTQSPSSLSASVGDRVTITCRASQDISNYLSWYQQKPGKAIKLLIYYTSRLHSGVPSRFSGSGSGTDYTLTISSLQPEDFATYFCQQGHTLPPTFGGGTKVEIK", "values": [
      {"measurement": "EC50 based on UCP1 activation in dedifferentiated brown adipocytes (Thermo cells)", "setting": "[1]", "value": 3.21, "unit": "nM"},
      {"measurement": "IC50 for cAMP inhibition in SH-SY5Y human neuroblastoma cells", "setting": "[1]", "value": 2.01, "unit": "nM"},
      {"measurement": "IC50 of inhibition of cAMP elevation in response to FSH (5 μg/mL) in KGN human ovarian cancer cells", "setting": "[1]", "value": 0.64, "unit": "nM"},
      {"measurement": "right-shift in Tm of the Fab domain", "setting": "[2]", "value": "~1.8", "unit": "°C"}
    ]}
  ]
}
